Assay [1] deals with T1, NS3aH1-mCherry, no drug (DMSO) (hepatitis C virus).
T1 construct: also called NS3a-mCherry
Kind of assay: colocalization, confocal microscopy, NIH3T3 cells, no drug.

Assay [2] deals with T2, NS3a/grazoprevir complex (biotinylated NS3a_3 with grazoprevir) (hepatitis C virus genotype 1a).
T2 construct: See note of m30; also called grazoprevir/NS3a complex
The experiment in a line: yeast surface display.

Assay [3] concerns the target T2, NS3a/grazoprevir complex (biotinylated …). The experiment in a line: yeast surface display titration, apparent KD; NS3a_3, 10 drug:1 NS3a.
Assay [4] has the same target. Kind of assay: yeast surface display, flow cytometry. On the technique in general: Flow cytometry measures light scatter and fluorescence of single cells or particles in a stream.
The target of assay [5] is T3, NS3a/danoprevir complex (biotinylated NS3a_3 with danoprevir) (hepatitis C virus genotype 1a).
T3 construct: See note of m30; also called danoprevir/NS3a complex
Kind of assay: yeast surface display.

In assay [6] the target is T3, NS3a/danoprevir complex (biotinylated …). Kind of assay: yeast surface display titration, apparent KD; NS3a_3, 10 drug:1 NS3a.
Assay [7] deals with T4, NS3a/asunaprevir complex (biotinylated NS3a_3 with asunaprevir) (hepatitis C virus genotype 1a).
T4 construct: See note of m30
The description is as above.

For assay [8], the target named is T2, NS3a/grazoprevir complex (biotinylated …). Kind of assay: ratio of apparent KD against the danoprevir/NS3a complex of the same clone.
Assay [9] has as its target T4, NS3a/asunaprevir complex (biotinylated …). Described as above.
Assay [10] concerns the target T3, NS3a/danoprevir complex (biotinylated …).
The target of assay [11] is T2, NS3a/grazoprevir complex (biotinylated …). Kind of assay: yeast surface display; against the NS3a/danoprevir complex.
The target of assay [12] is T4, NS3a/asunaprevir complex (biotinylated …). The assay is described as above.
For assay [13], the target named is T3, NS3a/danoprevir complex (biotinylated …). The experiment in a line: yeast surface display; relative binding, too weak for a full titration curve.
For assay [14], the target named is T2, NS3a/grazoprevir complex (biotinylated …). Described as above.
Assay [15] deals with T4, NS3a/asunaprevir complex (biotinylated …). The assay is described as above.
Assay [16] has as its target T3, NS3a/danoprevir complex (biotinylated …). The experiment in a line: yeast surface display, flow cytometry.

Substitutions are numbered along the chain they refer to. Numbers in names are those of the source. Where two headings read alike, the source gives them in different places. Some results are limits rather than exact numbers.

B1: Tom20-BFP-ANR-ANR (other)
chain: MVGRNSAIAAGVCGALFIGYCIYFDRKRRSDPNFMSELIKENMHMKLYMEGTVDNHHFKCTSEGEGKPYEGTQTMRIKVVEGGPLPFAFDILATSFLYGSKTFINHTQGIPDFFKQSFPEGFTWERVTTYEDGGVLTATQDTSLQDGCLIYNVKIRGVNFTSNGPVMQKKTLGWEAFTETLYPADGGLEGRNDMALKLVGGSHLIANIKTTYRSKKPAKNLKMPGVYYVDYRLERIKEANNETYVEQHEVAVARYCDLPSKLGHKLNSGSGEQKLISEEDLGSGTGSGTGSGTGTTSGTGTGGSTGGELDELVYLLDGPGYDPIHSDGSGTGSGTGSGTGTTSGTGTGGSTGGELDELVYLLDGPGYDPIHSDGSGATNFSLLKQAGDVEENPG
As for B1, in assay [1], the binding result is “binds”.

B2: GNCR1, yeast surface display (C-terminal fusion to Aga2) (designed binder)
chain: KDNSSTIEGRYPYDVPDYALQASGGGGSGGGGSGGGGSASHMDIEKLCKKAEEEAKEAQEKADELRQRHPDSQAAEDAEDLANLAVAAVLTACLLAQEHPNADIAKLCIKAASEAAEAASKAAELAQRHPDSQAARDAIKLASQAARAVILAIMLAAENPNADIAKLCIKAASEAAEAASKAAELAQRHPDSQAARDAIKLASQAAEAVERAIWLAAENPNADIAKKCIKAASEAAEEASKAAEEAQRHPDSQKARDEIKEASQKAEEVKERCKSLEGGGSEQKLISEEDL
B2: the Kd in assay [2] is less than 200 nM; in assay [3], 140 nM.

B3: G3 M112E, yeast surface display (designed binder)
chain: DIEKLCKKAEEEAKEAQEKADELRQRHPDSQAAEDAEDLANEAEAAVLAACSLAQEHPNADIAKLCIKAASEAAEAASKAAELAQRHPDSQAARDAIKLASQAARAVILAIELAAENPNADIAKLCIKAASEAAEAASKAAELAQRHPDSQAARDAIKLASQAAEAVERAIWLAAENPNADIAKKCIKAASEAAEEASKAAEEAQRHPDSQKARDEIKEASQKAEEVKERCKS
notes: also called G3 interface point mutant M112E
Turning to B3, the binding result in [4] is given as “no binding”.

B4: G3 A175Q, yeast surface display (designed binder)
chain: B3 chain with E112M, A175Q
notes: See note of m25; also called G3 interface point mutant A175Q
In the case of B4, the binding result in assay [4] was “no binding”.

B5: DNCR1, yeast surface display (C-terminal fusion to Aga2) (designed binder)
chain: KDNSSTIEGRYPYDVPDYALQASGGGGSGGGGSGGGGSASHMSSDEEEARELIERAKEAAERAQEAAERTGDPRVRELARELKRLAQEAAEEVKRDPSSSDVNEALKLIVEAIEAAVDALEAAERTGDPEVRELARELVRLAVEAAEEVQRNPSSSDVNEALLSIVIAIEAAVHALEAAERTGDPEVRELARELVRLAVEAAEEVQRNPSSREVEHALMKIVLAIYEAEESLREAEESGDPEKREKARERVREAVERAEEVQRDPSGWLNHLEGGGSEQKLISEEDL
Regarding B5, the Kd was less than 200 nM in [5], 190 nM in assay [6], 2900 nM in [3] and 6300 nM in assay [7]. The Fold drug specificity in assay [8] turned out to be 15 fold; in [9], 33 fold.

B6: DNCR2, yeast surface display (C-terminal fusion to Aga2) (designed binder)
chain: B5 chain with L163H, I167Y, V173I, H174F, E213N, K220R, E227L, S231N
For B6, the Kd in assay [10] came to 0.036 nM; in assay [3], 2000 nM; in [7] it was 770 nM. For the same molecule, the fold specificity in assay [11] and in [12] was more than 20000 fold in each case. The Fold drug specificity in assay [8] is 56000 fold; in [9], 21000 fold.

B7: D5, yeast surface display (C-terminal fusion to Aga2) (designed binder)
chain: B5 chain with S164T, H174N, E215N, H216I, M219W, Y226Q, E229V
As to B7, the binding result in assay [13], in assay [14] and in [15] was “binds” throughout.

B8: D5 W177D, yeast surface display (designed binder)
chain: SSDEEEARELIERAKEAAERAQEAAERTGDPRVRELARELKRLAQEAAEEVKRDPSSSDVNEALKLIVEAIEAAVDALEAAERTGDPEVRELARELVRLAVEAAEEVQRNPSSSDVNEALLTIVIAIEAAVNALEAAERTGDPEVRELARELVRLAVEAAEEVQRNPSSREVNIALDKIVLAIQEAVESLREAEESGDPEKREKARERVREAVERAEEVQRDPSGWLNH
notes: also called point mutant of the D5 interface, W177D
On to B8, for which the binding result in [16] was “no binding (tested: 1 µM NS3a with avidity, 10 µM danoprevir)”.

B9: ANR-ANR-BFP-CAAX (other)
chain: MGELDELVYLLDGPGYDPIHSDGSGTGSGTGSGTGTTSGTGTGGSTGGELDELVYLLDGPGYDPIHSDGSGTGSGTGSGTGTTSGTGTGGSTGEQKLISEEDLGSGSSELIKENMHMKLYMEGTVDNHHFKCTSEGEGKPYEGTQTMRIKVVEGGPLPFAFDILATSFLYGSKTFINHTQGIPDFFKQSFPEGFTWERVTTYEDGGVLTATQDTSLQDGCLIYNVKIRGVNFTSNGPVMQKKTLGWEAFTETLYPADGGLEGRNDMALKLVGGSHLIANIKTTYRSKKPAKNLKMPGVYYVDYRLERIKEANNETYVEQHEVAVARYCDLPSKLGHKLNRKHKEKMSKDGKKKKKKSKTKCVIM
Take B9: in assay [1], the binding result is given as “binds”.

These data come from patent publication US20220025003A1 (University of Washington, published 2022).
